Measured values: publication PMC4788097 (Structure (London, England : 1993), 2013)
Each block holds one binder with its values, some of them ahead of it.

What was measured:
Stx6 (3-110) [1] = target: T1, Stx6 (3-110) (human, UniProt O43752 3-110); experiment: crystal structure
T1 sequence (looked up): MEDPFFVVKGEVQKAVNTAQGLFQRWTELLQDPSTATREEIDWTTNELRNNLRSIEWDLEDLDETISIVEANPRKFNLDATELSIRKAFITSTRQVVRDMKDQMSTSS

Stx10 (1-110) = target: T2, Stx10 (1-110) (human, UniProt O60499 1-110); experiment: ITC
T2 sequence (looked up): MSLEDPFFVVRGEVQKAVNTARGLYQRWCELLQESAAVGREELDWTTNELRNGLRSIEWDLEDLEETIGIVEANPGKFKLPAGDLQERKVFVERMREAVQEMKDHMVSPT

Stx6 (3-110) [2] = target: T1, Stx6 (3-110); experiment: ITC

- binding result (Stx6 (3-110) [1]): binds
Binder: AHGMLKLYYGLSEGEAA [Ang2 peptide 33AHGMLKLYYGLSEGEAA49]

- Kd (Stx10 (1-110)): 6.5 ± 0.8 µM
- stoichiometry N (Stx10 (1-110)): 0.7
- Kd (Stx6 (3-110) [2]): 5.6 ± 0.7 µM
- stoichiometry N (Stx6 (3-110) [2]): 0.8
B1: Ang2 (1-69) (domain or fragment, human, UniProt Q9UID3 1-69, looked up)
chain: MAAAAAAGPSPGSGPGDSPEGPEGEAPERRRKAHGMLKLYYGLSEGEAAGRPAGPDPLDPTDLNGAHFD
